Results taken from publication PMC10786891, “Massively parallel profiling of RNA-targeting CRISPR-Cas13d”.

T1: EsCas13d, nuclease-dead (Eubacterium siraeum, UniProt B0MS50, R295A;H300A;R849A;H854A)
T1 sequence: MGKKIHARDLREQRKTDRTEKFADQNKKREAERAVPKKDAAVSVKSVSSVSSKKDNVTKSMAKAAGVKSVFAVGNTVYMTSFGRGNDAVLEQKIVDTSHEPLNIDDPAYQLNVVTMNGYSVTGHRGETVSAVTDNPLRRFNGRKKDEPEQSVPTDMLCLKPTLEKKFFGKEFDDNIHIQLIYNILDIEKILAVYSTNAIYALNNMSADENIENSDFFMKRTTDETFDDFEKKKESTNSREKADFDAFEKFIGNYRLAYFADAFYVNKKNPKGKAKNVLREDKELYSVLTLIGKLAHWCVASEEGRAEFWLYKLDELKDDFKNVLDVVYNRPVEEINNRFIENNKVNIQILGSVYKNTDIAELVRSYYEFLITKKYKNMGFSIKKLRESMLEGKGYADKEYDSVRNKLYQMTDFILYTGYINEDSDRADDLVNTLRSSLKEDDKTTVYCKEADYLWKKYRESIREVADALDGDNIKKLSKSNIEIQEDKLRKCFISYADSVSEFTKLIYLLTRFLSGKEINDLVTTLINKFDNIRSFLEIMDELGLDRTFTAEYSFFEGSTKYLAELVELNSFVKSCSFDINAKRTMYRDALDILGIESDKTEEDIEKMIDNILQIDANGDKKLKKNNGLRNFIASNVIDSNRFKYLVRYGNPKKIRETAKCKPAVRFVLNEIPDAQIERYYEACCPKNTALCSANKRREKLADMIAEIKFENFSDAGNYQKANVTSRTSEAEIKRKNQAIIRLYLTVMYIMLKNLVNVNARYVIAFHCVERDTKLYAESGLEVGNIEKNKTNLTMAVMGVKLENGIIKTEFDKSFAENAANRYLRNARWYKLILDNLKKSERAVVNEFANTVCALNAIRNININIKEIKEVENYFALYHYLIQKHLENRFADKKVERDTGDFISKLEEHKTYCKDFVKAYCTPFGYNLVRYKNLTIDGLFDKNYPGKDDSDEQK

B1: target 1 U3C,C21U (mixed)
RNA 1: CACCCGUGCAAAAAUGCAGGGGUCUAAAACUGAGCGGAUAACCUCUCUAUGG
RNA 2: GGGAAUGGAUCCACAUCUACGAAUUCGUACUAUAGAGAGGUUAUCCGCCCACCGAGAUCGGAAGAGCACACGU
B2: target 1 complement block 4-6 (mixed)
RNA 1: CACCCGUGCAAAAAUGCAGGGGUCUAAAACUGAGCGGAUAACCUCUCUAUGG
RNA 2: GGGAAUGGAUCCACAUCUACGAAUUCGUACCAUAGAGAGGUUAUCGCGUCACCGAGAUCGGAAGAGCACACGU
B3: target 1 C2U,C6U (mixed)
RNA 1: CACCCGUGCAAAAAUGCAGGGGUCUAAAACUGAGCGGAUAACCUCUCUAUGG
RNA 2: GGGAAUGGAUCCACAUCUACGAAUUCGUACCAUAGAGAGGUUAUCUGCUUACCGAGAUCGGAAGAGCACACGU
B4: target 1 U3C,G12A (mixed)
RNA 1: CACCCGUGCAAAAAUGCAGGGGUCUAAAACUGAGCGGAUAACCUCUCUAUGG
RNA 2: GGGAAUGGAUCCACAUCUACGAAUUCGUACCAUAGAGAGAUUAUCCGCCCACCGAGAUCGGAAGAGCACACGU
B5: target 1 C2A,G15U (mixed)
RNA 1: CACCCGUGCAAAAAUGCAGGGGUCUAAAACUGAGCGGAUAACCUCUCUAUGG
RNA 2: GGGAAUGGAUCCACAUCUACGAAUUCGUACCAUAGAUAGGUUAUCCGCUAACCGAGAUCGGAAGAGCACACGU
B6: target 1 U10G,A16G (mixed)
RNA 1: CACCCGUGCAAAAAUGCAGGGGUCUAAAACUGAGCGGAUAACCUCUCUAUGG
RNA 2: GGGAAUGGAUCCACAUCUACGAAUUCGUACCAUAGGGAGGUGAUCCGCUCACCGAGAUCGGAAGAGCACACGU
B7: target 1 A9U,A20U (mixed)
RNA 1: CACCCGUGCAAAAAUGCAGGGGUCUAAAACUGAGCGGAUAACCUCUCUAUGG
RNA 2: GGGAAUGGAUCCACAUCUACGAAUUCGUACCUUAGAGAGGUUUUCCGCUCACCGAGAUCGGAAGAGCACACGU
B8: target 1 insU 3' of 17,insU 3' of 9 (mixed)
RNA 1: CACCCGUGCAAAAAUGCAGGGGUCUAAAACUGAGCGGAUAACCUCUCUAUGG
RNA 2: GGGAAUGGAUCCACAUCUACGAAUUCGUACCAUAGUAGAGGUUAUUCCGCUCACCGAGAUCGGAAGAGCACACGU
B9: target 1 insU 3' of 20,insG 3' of 3 (mixed)
RNA 1: CACCCGUGCAAAAAUGCAGGGGUCUAAAACUGAGCGGAUAACCUCUCUAUGG
RNA 2: GGGAAUGGAUCCACAUCUACGAAUUCGUACCAUUAGAGAGGUUAUCCGCUGCACCGAGAUCGGAAGAGCACACGU
B10: target 1 insC 3' of 15,insU 3' of 14 (mixed)
RNA 1: CACCCGUGCAAAAAUGCAGGGGUCUAAAACUGAGCGGAUAACCUCUCUAUGG
RNA 2: GGGAAUGGAUCCACAUCUACGAAUUCGUACCAUAGAGCAUGGUUAUCCGCUCACCGAGAUCGGAAGAGCACACGU
B11: target 1 A1G,C6U (mixed)
RNA 1: CACCCGUGCAAAAAUGCAGGGGUCUAAAACUGAGCGGAUAACCUCUCUAUGG
RNA 2: GGGAAUGGAUCCACAUCUACGAAUUCGUACCAUAGAGAGGUUAUCUGCUCGCCGAGAUCGGAAGAGCACACGU
B12: target 1 insU 3' of 15,insC 3' of 3 (mixed)
RNA 1: CACCCGUGCAAAAAUGCAGGGGUCUAAAACUGAGCGGAUAACCUCUCUAUGG
RNA 2: GGGAAUGGAUCCACAUCUACGAAUUCGUACCAUAGAGUAGGUUAUCCGCUCCACCGAGAUCGGAAGAGCACACGU
B13: target 1 U8C,A18C (mixed)
RNA 1: CACCCGUGCAAAAAUGCAGGGGUCUAAAACUGAGCGGAUAACCUCUCUAUGG
RNA 2: GGGAAUGGAUCCACAUCUACGAAUUCGUACCAUCGAGAGGUUACCCGCUCACCGAGAUCGGAAGAGCACACGU
B14: target 1 insC 3' of 19,insG 3' of 6 (mixed)
RNA 1: CACCCGUGCAAAAAUGCAGGGGUCUAAAACUGAGCGGAUAACCUCUCUAUGG
RNA 2: GGGAAUGGAUCCACAUCUACGAAUUCGUACCAUCAGAGAGGUUAUCCGGCUCACCGAGAUCGGAAGAGCACACGU
B15: target 1 insC 3' of 19,insG 3' of 2 (mixed)
RNA 1: CACCCGUGCAAAAAUGCAGGGGUCUAAAACUGAGCGGAUAACCUCUCUAUGG
RNA 2: GGGAAUGGAUCCACAUCUACGAAUUCGUACCAUCAGAGAGGUUAUCCGCUCGACCGAGAUCGGAAGAGCACACGU
B16: target 1 A1C,C6U (mixed)
RNA 1: CACCCGUGCAAAAAUGCAGGGGUCUAAAACUGAGCGGAUAACCUCUCUAUGG
RNA 2: GGGAAUGGAUCCACAUCUACGAAUUCGUACCAUAGAGAGGUUAUCUGCUCCCCGAGAUCGGAAGAGCACACGU
B17: target 1 A18C,C21A (mixed)
RNA 1: CACCCGUGCAAAAAUGCAGGGGUCUAAAACUGAGCGGAUAACCUCUCUAUGG
RNA 2: GGGAAUGGAUCCACAUCUACGAAUUCGUACAAUCGAGAGGUUAUCCGCUCACCGAGAUCGGAAGAGCACACGU
B18: target 1 G15A,A18U (mixed)
RNA 1: CACCCGUGCAAAAAUGCAGGGGUCUAAAACUGAGCGGAUAACCUCUCUAUGG
RNA 2: GGGAAUGGAUCCACAUCUACGAAUUCGUACCAUUGAAAGGUUAUCCGCUCACCGAGAUCGGAAGAGCACACGU
B19: target 1 insA 3' of 19,insC 3' of 5 (mixed)
RNA 1: CACCCGUGCAAAAAUGCAGGGGUCUAAAACUGAGCGGAUAACCUCUCUAUGG
RNA 2: GGGAAUGGAUCCACAUCUACGAAUUCGUACCAUAAGAGAGGUUAUCCGCCUCACCGAGAUCGGAAGAGCACACGU
B20: target 1 insA 3' of 8,insA 3' of 4 (mixed)
RNA 1: CACCCGUGCAAAAAUGCAGGGGUCUAAAACUGAGCGGAUAACCUCUCUAUGG
RNA 2: GGGAAUGGAUCCACAUCUACGAAUUCGUACCAUAGAGAGGUUAUACCGCAUCACCGAGAUCGGAAGAGCACACGU
B21: target 1 insA 3' of 12,insG 3' of 9 (mixed)
RNA 1: CACCCGUGCAAAAAUGCAGGGGUCUAAAACUGAGCGGAUAACCUCUCUAUGG
RNA 2: GGGAAUGGAUCCACAUCUACGAAUUCGUACCAUAGAGAGGAUUAGUCCGCUCACCGAGAUCGGAAGAGCACACGU
B22: target 1 C7A,U19C (mixed)
RNA 1: CACCCGUGCAAAAAUGCAGGGGUCUAAAACUGAGCGGAUAACCUCUCUAUGG
RNA 2: GGGAAUGGAUCCACAUCUACGAAUUCGUACCACAGAGAGGUUAUACGCUCACCGAGAUCGGAAGAGCACACGU
B23: target 1 insU 3' of 17,insC 3' of 17 (mixed)
RNA 1: CACCCGUGCAAAAAUGCAGGGGUCUAAAACUGAGCGGAUAACCUCUCUAUGG
RNA 2: GGGAAUGGAUCCACAUCUACGAAUUCGUACCAUAGUCAGAGGUUAUCCGCUCACCGAGAUCGGAAGAGCACACGU
B24: target 1 G12C,C21A (mixed)
RNA 1: CACCCGUGCAAAAAUGCAGGGGUCUAAAACUGAGCGGAUAACCUCUCUAUGG
RNA 2: GGGAAUGGAUCCACAUCUACGAAUUCGUACAAUAGAGAGCUUAUCCGCUCACCGAGAUCGGAAGAGCACACGU
B25: target 1 insA 3' of 21,insA 3' of 10 (mixed)
RNA 1: CACCCGUGCAAAAAUGCAGGGGUCUAAAACUGAGCGGAUAACCUCUCUAUGG
RNA 2: GGGAAUGGAUCCACAUCUACGAAUUCGUACCAAUAGAGAGGUUAAUCCGCUCACCGAGAUCGGAAGAGCACACGU
B26: target 1 insG 3' of 7 (mixed)
RNA 1: CACCCGUGCAAAAAUGCAGGGGUCUAAAACUGAGCGGAUAACCUCUCUAUGG
RNA 2: GGGAAUGGAUCCACAUCUACGAAUUCGUACCAUAGAGAGGUUAUCGCGCUCACCGAGAUCGGAAGAGCACACGU
B27: target 1 insC 3' of 22,insU 3' of 7 (mixed)
RNA 1: CACCCGUGCAAAAAUGCAGGGGUCUAAAACUGAGCGGAUAACCUCUCUAUGG
RNA 2: GGGAAUGGAUCCACAUCUACGAAUUCGUACCCAUAGAGAGGUUAUCUCGCUCACCGAGAUCGGAAGAGCACACGU
B28: target 1 insA 3' of 12,insU 3' of 6 (mixed)
RNA 1: CACCCGUGCAAAAAUGCAGGGGUCUAAAACUGAGCGGAUAACCUCUCUAUGG
RNA 2: GGGAAUGGAUCCACAUCUACGAAUUCGUACCAUAGAGAGGAUUAUCCUGCUCACCGAGAUCGGAAGAGCACACGU

Each binder was assayed against T1, EsCas13d, nuclease-dead (assay: crRNA (strand 1, pre-loaded); Mg2+; 40 mM Tris-HCl pH 7.5, 150 mM NaCl, 6 mM MgCl2, 1 mM DTT, 0.1% Tween-20, 0.2 mg/ml BSA; 25 C; 10 min per concentration, then washed). Settings: tags: His6-TwinStrep-SUMO cleaved; N-terminal SNAP kept (SNAP-Surface 488); label: 3' end held by stalled T7 RNA polymerase.
With B1 the Kd was 27 ± 7 nM.
Binder B2 has a Kd of 4.95 ± 0.15 nM.
Work on B3 yielded a Kd of 8.3 ± 0.6 nM.
B4 gave a Kd of 11.1 ± 1.1 nM.
In the case of B5, the Kd is reported as 29 ± 5 nM.
B6 gave a Kd of 42.2 ± 3.5 nM.
Binder B7 has a Kd of 43 ± 4 nM.
In the case of B8, the Kd is reported as 40 ± 8 nM.
Work on B9 yielded a Kd of 9.4 ± 0.6 nM.
In the case of B10, the Kd is reported as 28.5 ± 2.3 nM.
In the case of B11, the Kd is reported as 8.9 ± 0.7 nM.
In the case of B12, the Kd is reported as 11.6 ± 1.1 nM.
With B13 the Kd was 89 ± 9 nM.
B14 gave a Kd of 32 ± 4 nM.
Binder B15 has a Kd of 33 ± 5 nM.
For B16, the Kd was 9.2 ± 0.9 nM.
In the case of B17, the Kd is reported as 88 ± 23 nM.
B18 gave a Kd of 58 ± 11 nM.
With B19 the Kd was 48 ± 8 nM.
For B20, the Kd was 8.4 ± 0.5 nM.
B21 showed a Kd of 46.9 ± 3.5 nM.
B22 was tested, and the Kd was 33.2 ± 3.5 nM.
B23 showed a Kd of 36 ± 5 nM.
For B24, the Kd was 58 ± 11 nM.
In the case of B25, the Kd is reported as 28.2 ± 2.4 nM.
With B26 the Kd was 5.5 ± 0.16 nM.
In the case of B27, the Kd is reported as 47 ± 8 nM.
With B28 the Kd was 64 ± 14 nM.
